Source: US20230287402A1

Molecular target: GFP-60mer nanocages
Assay: absorbance at 490 nm and 570 nm of the complex purified by size exclusion chromatography

- ratio GFP/mScarlet in the purified complex: 0.95
Substance: GBP-mScarlet, purified fusion of the anti-GFP nanobody and mScarlet (VHH)
